Target: T1, Exendin-4 (Heloderma suspectum (Gila monster); …)
T1 construct: also called synthetic exendin-4
Assay: displacement of radiolabeled GLP-1 from RINm5f plasma membranes

B1: GLP-1 receptor (plasma membrane preparation of rat insulinoma cell line RINm5f) (receptor)
chain: GPRPQGATVSLSETVQKWREYRHQCQRFLTEAPLLATGLFCNRTFDDYACWPDGPPGSFVNVSCPWYLPWASSVLQGHVYRFCTAEGIWLHKDNSSLPWRDLSECEESKQGERNSPEEQLLSLYIIYTVGYALSFSALVIASAILVSFRHLHCTRNYIHLNLFASFILRALSVFIKDAALKWMYSTAAQQHQWDGLLSYQDSLGCRLVFLLMQYCVAANYYWLLVEGVYLYTLLAFSVFSEQRIFKLYLSIGWGVPLLFVIPWGIVKYLYEDEGCWTRNSNMNYWLIIRLPILFAIGVNFLVFIRVICIVIAKLKANLMCKTDIKCRLAKSTLTLIPLLGTHEVIFAFVMDEHARGTLRFVKLFTELSFTSFQGFMVAVLYCFVNNEVQMEFRKSWERWRLERLNIQRDSSMKPLKCPTSSVSSGATVGSSVYAATCQNSCS
notes: whole, on cells; The receptor stood in a plasma membrane preparation of the cells, not on intact cells; also called GLP-1 receptors; RINm5f membranes
binding result: binds

Reference: patent publication US20130165379A1 (AMYLIN PHARMACEUTICALS, published 2013)
